Reference: patent US20040048327A1 (GEORGIA TECH RESEARCH, published 2004)
Numbered stars: 1 amine (or outer) side, 2 acyl side, 3 side chain; on linkers, the order of the positions; unused ones are H or OH. Square brackets hold non-standard residues; d marks the D form. Ends that are not written are not given here. * marks the point of attachment. AAsn = aza-asparagine, NC(=O)CN(N[*:1])C(=O)[*:2]; AAsp = aza-Asp, O=C(N(CC(=O)[*:3])N[*:1])[*:2]; azaAsp = O=C(N(CC(=O)[*:3])N[*:1])[*:2]; PhPr = N-terminal cap as named (PhPr); trans‑EP‑CH2CH2Ph = not defined here; azaAsn = NC(=O)CN(N[*:1])C(=O)[*:2]; Hydrocinnamoyl = O=C(CCc1ccccc1)*; (S,S)‑EP = not defined here; Cbz = O=C(OCc1ccccc1)*; NHBn = c1ccc(CN*)cc1

B1: Cbz-Ile-Glu-Thr-AAsp-(S,S)-EP-COOCH2Ph (peptide)
peptide: Cbz-IET[azaAsp]-{(S,S)‑EP‑COOCH2Ph}
B2: Cbz-Ile-Glu-Thr-AAsp-(R, R)-EP-COOCH2Ph (peptide)
peptide: Cbz-IET[azaAsp]-{(R,R)‑EP‑COOCH2Ph}
B3: Cbz-Glu-Val-AAsp-(S,S)-EP-CONHCH2CH2Ph (peptide)
peptide: Cbz-Glu-Val-[azaAsp]-{(S,S)‑EP‑CONHCH2CH2Ph}
B4: Cbz-Val-AAsp-(trans)-EP-Ph-4-Cl (peptide)
peptide: Cbz-Val-[AAsp]-{(trans)‑EP‑Ph‑4‑Cl}
B5: Cbz-Ala-Ala-AAsn-(S, S)-EP-COOCH2Ph (peptide)
peptide: Cbz-Ala-Ala-[AAsn]-{(S,S)‑EP-COOCH2Ph}
modifications: reading uncertain; also: printed as Cbz-Ala-Ala-AAsn-(S, S)-EP-COOCH2Ph
B6: PhPr-Val-Ala-AAsp-(R,R)-EP-CONHCH2Ph (peptide)
peptide: Hydrocinnamoyl-Val-Ala-[AAsp]-{(R,R)‑EP‑CONHCH2Ph}
B7: Cbz-Asp-Glu-Val-AAsp-(2R, 3R)-EP-COOEt (peptide)
peptide: Cbz-DEVD
modifications: not fully specified (residue 4, C-terminus); printed as Cbz-Asp-Glu-Val-AAsp-(2R, 3R)-EP-COOEt
B8: Cbz-Ala-Ala-AAsn-(2R, 3R)-EP-COOEt (peptide)
peptide: Cbz-Ala-Ala-[azaAsn]-{(2R,3R)‑EP‑COOEt}
B9: Cbz-Val-AAsp-(S,S)-EP-COOEt (peptide)
peptide: Cbz-Val-[azaAsp]-{(S,S)‑EP‑COOEt}
B10: Cbz-Glu-Val-AAsp-(R,R)-EP-CO-Phe-NH2 (peptide)
peptide: Cbz-Glu-Val-[azaAsp]-{(R,R)‑EP‑CO-Phe-NH2}
B11: PhPr-Val-Ala-AAsp-(S,S)-EP-CONHCH2CH3 (peptide)
peptide: Hydrocinnamoyl-Val-Ala-[AAsp]-{(S,S)‑EP‑CONHCH2CH3}
B12: PhPr-Val-Ala-AAsp-(R,R)-EP-CO-Phe-NH2 (peptide)
peptide: Hydrocinnamoyl-Val-Ala-[AAsp]-{(R,R)‑EP‑CO-Phe-NH2}
B13: PhPr-Val-Ala-AAsp-(S,S)-EP-COOEt (peptide)
peptide: Hydrocinnamoyl-Val-Ala-[AAsp]-{(S,S)‑EP‑COOEt}
B14: PhPr-Val-Ala-AAsp-(R,R)-EP-CONHCH2CH2Ph (peptide)
peptide: Hydrocinnamoyl-Val-Ala-[AAsp]-{(R,R)‑EP‑CONHCH2CH2Ph}
B15: Cbz-Ile-Glu-Thr-AAsp-(R, R)-EP-CONHCH2Ph (peptide)
peptide: Cbz-IET[azaAsp]-{(R,R)‑EP‑CONHCH2Ph}
B16: PhPr-Val-Ala-AAsp-(S,S)-EP-COOCH2CH2Ph (peptide)
peptide: Hydrocinnamoyl-Val-Ala-[AAsp]-{(S,S)‑EP‑COOCH2CH2Ph}
B17: PhPr-Val-Ala-AAsp-(S,S)-EP-CO-Leu-NH2 (peptide)
peptide: PhPr-Val-Ala-[AAsp]-{(S,S)‑EP‑CO-Leu-NH2}
B18: PhPr-Val-Ala-AAsp-(S,S)-EP-CONHCH2Ph (peptide)
peptide: Hydrocinnamoyl-Val-Ala-[AAsp]-{(S,S)‑EP‑CONHCH2Ph}
B19: PhPr-Val-Ala-AAsp-(S,S)-EP-CONHCH2CH(OH)Ph (peptide)
peptide: PhPr-Val-Ala-[AAsp]-{(S,S)‑EP‑CONHCH2CH(OH)Ph}
B20: PhPr-Val-Ala-AAsp-(2R, 3R)-EP-COOCH2Ph (peptide)
peptide: Hydrocinnamoyl-Val-Ala-[AAsp]-{(2R,3R)‑EP‑COOCH2Ph}
B21: PhPr-Val-Ala-AAsp-(R,R)-EP-CO-Ala-NHCH2Ph (peptide)
peptide: Hydrocinnamoyl-Val-Ala-[AAsp]-{(R,R)‑EP‑CO-Ala-NHBn}
B22: Cbz-Ile-Glu-Thr-AAsp-(S,S)-EP-CO-Ala-NHCH2Ph (peptide)
peptide: Cbz-IET[azaAsp]-{(S,S)‑EP‑CO-Ala-NHBn}
B23: Cbz-Asp-Glu-Val-AAsp-(S,S)-EP-CO-Phe-NH2 (peptide)
peptide: Cbz-DEV[azaAsp]-{(S,S)‑EP‑CO-Phe-NH2}
B24: Cbz-Ile-Glu-Thr-AAsp-(2S, 3S)-EP-COOEt (peptide)
peptide: Cbz-IET[azaAsp]-{(2S,3S)‑EP‑COOEt}
B25: Cbz-Val-AAsp-(trans)-EP-CH2CH2Ph (peptide)
peptide: Cbz-Val-[AAsp]-{(trans)‑EP‑CH2CH2Ph}
B26: PhPr-Val-Ala-AAsp-(R,R)-EP-CONHCH2CH(OH)Ph (peptide)
peptide: Hydrocinnamoyl-Val-Ala-[AAsp]-{(R,R)‑EP‑CONHCH2CH(OH)Ph}
B27: PhPr-Val-Ala-AAsp-trans-EP-CH2CH2Ph (peptide)
peptide: Hydrocinnamoyl-Val-Ala-[AAsp]-{trans‑EP‑CH2CH2Ph}
modifications: reading uncertain; also: printed as PhPr-Val-Ala-AAsp-trans-EP-CH2CH2Ph
B28: PhPr-Val-Ala-AAsp-(2S, 3S)-EP-COOCH2Ph (peptide)
peptide: PhPr-Val-Ala-[AAsp]-{(2S,3S)‑EP‑COOCH2Ph}
B29: Cbz-Asp-Glu-Val-AAsp-(2S, 3S)-EP-COOEt (peptide)
peptide: Cbz-DEVD
modifications: not fully specified (residue 4, C-terminus); printed as Cbz-Asp-Glu-Val-AAsp-(2S, 3S)-EP-COOEt
B30: PhPr-Val-Ala-AAsp-(S,S)-EP-CO-Phe-NH2 (peptide)
peptide: PhPr-Val-Ala-[AAsp]-{(S,S)‑EP‑CO-Phe-NH2}
B31: PhPr-Val-Ala-AAsp-(S,S)-EP-CONHCH2CH2Ph (peptide)
peptide: PhPr-Val-Ala-[AAsp]-{(S,S)‑EP‑CONHCH2CH2Ph}
B32: Cbz-Asp-Glu-Val-AAsp-(S,S)-EP-COOCH2Ph (peptide)
peptide: Cbz-DEV[azaAsp]-{(S,S)‑EP‑COOCH2Ph}
B33: PhPr-Val-Ala-AAsp-(S,S)-EP-CO-Tyr-NH2 (peptide)
peptide: PhPr-Val-Ala-[AAsp]-{(S,S)‑EP‑CO-Tyr-NH2}
B34: Cbz-Val-AAsp-(S, S)-EP-COOH (peptide)
peptide: Cbz-Val-[azaAsp]-{(S,S)‑EP‑COOH}
B35: PhPr-Val-Ala-AAsp-trans-EP-COOCH2Ph (peptide)
peptide: PhPr-Val-Ala-[AAsp]-{trans‑EP‑COOCH2Ph}
B36: Cbz-Ile-Glu-Thr-AAsp-(2R,3R)-EP-COOEt (peptide)
peptide: Cbz-IET[azaAsp]-{(2R,3R)‑EP‑COOEt}
B37: PhPr-Val-Ala-AAsp-(S,S)-EP-CO-Ala-NHCH2Ph (peptide)
peptide: PhPr-Val-Ala-[AAsp]-{(S,S)‑EP‑CO-Ala-NHBn}
B38: Cbz-Asp-Glu-Val-AAsp-(S,S)-EP-CONHCH2Ph (peptide)
peptide: Cbz-DEV[azaAsp]-{(S,S)‑EP‑CONHCH2Ph}
B39: Cbz-Ala-Ala-AAsn-(S, S)-EP-COOCH2CH2Ph (peptide)
peptide: Cbz-Ala-Ala-[AAsn]-{(S,S)‑EP-COOCH2CH2Ph}
modifications: reading uncertain; also: printed as Cbz-Ala-Ala-AAsn-(S, S)-EP-COOCH2CH2Ph
B40: Cbz-Ala-Ala-AAsn-(S, S)-EP-CON(nBu)2 (peptide)
peptide: Cbz-Ala-Ala-[AAsn]-{(S,S)‑EP-CON(nBu)2}
modifications: reading uncertain; also: printed as Cbz-Ala-Ala-AAsn-(S, S)-EP-CON(nBu)2
B41: PhPr-Val-Ala-AAsp-(R,R)-EP-COOEt (peptide)
peptide: Hydrocinnamoyl-Val-Ala-[AAsp]-{(R,R)‑EP‑COOEt}
B42: Cbz-Glu-Val-AAsp-(2S,3S)-EP-COOEt (peptide)
peptide: Cbz-Glu-Val-[azaAsp]-{(2S,3S)‑EP‑COOEt}

Columns and labels:
Assay in all cases: cell-based or functional assay
[1] = target: T1, autolytically stable caspase-1 variant (D381 E) (UniProt P29466 120-404, limits assumed)
T1 sequence (looked up): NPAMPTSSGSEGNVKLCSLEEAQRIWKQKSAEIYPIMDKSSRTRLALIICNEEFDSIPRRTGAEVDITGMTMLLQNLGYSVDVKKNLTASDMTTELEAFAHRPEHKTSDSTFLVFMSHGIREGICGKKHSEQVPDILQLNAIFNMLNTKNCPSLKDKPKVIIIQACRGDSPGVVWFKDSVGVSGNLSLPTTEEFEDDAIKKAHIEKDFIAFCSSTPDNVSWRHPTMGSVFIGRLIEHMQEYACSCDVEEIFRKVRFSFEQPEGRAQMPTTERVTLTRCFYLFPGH

caspase-3 = target: T2, caspase-3 (UniProt P42574 29-277, limits assumed)
T2 sequence (looked up): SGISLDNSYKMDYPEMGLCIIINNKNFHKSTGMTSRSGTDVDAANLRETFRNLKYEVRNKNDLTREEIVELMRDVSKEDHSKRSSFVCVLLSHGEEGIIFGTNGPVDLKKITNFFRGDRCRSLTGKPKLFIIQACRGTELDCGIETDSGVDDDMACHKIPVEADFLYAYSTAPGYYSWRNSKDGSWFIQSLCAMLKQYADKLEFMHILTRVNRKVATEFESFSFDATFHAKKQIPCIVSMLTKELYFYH

[2] = target: T3, schistosome legumain SmAE (Schistosoma mansoni asparaginyl endopeptidase) (Schistosoma mansoni, UniProt P09841 32-291)
T3 sequence (looked up): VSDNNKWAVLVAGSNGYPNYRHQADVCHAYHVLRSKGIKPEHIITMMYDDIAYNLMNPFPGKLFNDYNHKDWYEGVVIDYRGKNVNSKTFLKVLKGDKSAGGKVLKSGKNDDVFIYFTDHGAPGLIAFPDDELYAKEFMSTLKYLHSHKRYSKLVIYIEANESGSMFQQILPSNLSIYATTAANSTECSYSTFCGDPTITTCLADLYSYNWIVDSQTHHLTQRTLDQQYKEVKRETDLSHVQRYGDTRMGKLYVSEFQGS

Binder | k2 [1] [M⁻¹ s⁻¹] | k2 (caspase-3) [M⁻¹ s⁻¹] | IC50 [2] [µM]
B1 | 45800 | 9540 | 
B2 | 13000 | 3120 | 
B3 | 41100 | 27300 | 
B4 |  | 145 | 
B5 |  |  | 0.047
B6 | 1630 |  | 
B7 | 4320 | 464000 | 
B8 |  |  | 0.788
B9 |  | 3650 | 
B10 | 1040 | 470 | 
B11 |  | 1910 | 
B12 | 330 |  | 
B13 | 32200 | 1040 | 
B14 | 950 |  | 
B15 | 18100 | 6480 | 
B16 | 56600 | 2110 | 
B17 | 26100 | 420 | 
B18 | 65900 | 1610 | 
B19 | 12300 | 510 | 
B20 | 1860 |  | 
B21 | 268 |  | 

Binder | k2 [1] [M⁻¹ s⁻¹] | k2 (caspase-3) [M⁻¹ s⁻¹] | IC50 [2] [µM]
B22 |  | 3050 | 
B23 | 9250 | 722000 | 
B24 | 12400 | 4080 | 
B25 |  | 310 | 
B26 | 400 |  | 
B27 | 300 |  | 
B28 | 52100 | 1470 | 
B29 | 11800 | 1.07e+06 | 
B30 | 32700 | 625 | 
B31 | 17200 | 1110 | 
B32 | 54700 | 1.92e+06 | 
B33 | 3240 | 87 | 
B34 |  | 1110 | 
B35 | 18100 | 680 | 
B36 | 13300 | 2630 | 
B37 | 13400 | 260 | 
B38 | 25400 | 1.1e+06 | 
B39 |  |  | 0.045
B40 |  |  | 0.068
B41 | 6290 |  | 
B42 | 58500 | 50500 | 
